According to US6500916B1, “Carrier polymers migrating into target organs and drug-containing polymers” (Ono Pharmaceutical Co., Ltd., priority 1998, dated 2002):

Assays:
[1] = tested on: CCl4 induced liver damage; experiment: Effect on CCl4 induced liver damage (plasma GPT level); type: in vivo; conditions: mouse plasma, 18 hours fasting after CCl4 (10% v/v in sesame oil, 10 ml/kg i.p.); tail vein injection; Free PGE1 0.065 mg/kg, polymer 1 mg/kg
Method: A solution of 10% (v/v) of CCl4 in sesame oil at dose of 10 ml/kg was administered into mouse abdominal cavity, and then drug (saline solution (Control), Free-PGE1 (Comparison), drug (PGE1)-containing polymer of the present invention PGE1-HZ-PLGA-HZ-Lac (reductive) (prepared in Example 6)) were injected into mouse through its tail vein at the setting dose. After the mouse had been fasted for 18 hours (25° C., water was freely given), blood was collected to assay GPT level (IU/L) in plasma.

[2] = Biodistribution of [3H]PGE1-containing polymer (Polymer P2) after tail vein injection; type: in vivo, mouse; conditions: i.v., 3H label; for percentage of concentration in 1 ml of plasma: mean±S.D.; for percentage of urinary excretion: Urine
Method: PLGA-HZ-Gal (prepared in Example 3) and PLGA-HZ-Lac (prepared in Example 5) were labeled with ^111In and were injected into mouse through its tail vein at dose of 1 mg/kg to analyze biodistribution of them. The results are shown in Tables 1 and 2 (Each value in Tables means the percentage of concentration in 1 ml of plasma, the percentage of amount of accumulation in each organ and the percentage of urinary excretion of the said PLGA derivatives (mean±S.D.), respectively at various times after administration.).
Biodistribution of [^3H]PGE1-HZ-PLGA-HZ-Gal (prepared in Example 4, degree of polymerization=97) and [^3H]PGE1-ED-PLGA-ED-Gal (Comparison: the polymer described in International J. Pharmaceutics, 155, 65-74 (1997), degree of polymerization=101) was analyzed by the same procedure as described in Experiment 1. The results are shown in Tables 3 (Invention) and 4 (Comparison) (Each value in Tables means the percentage of concentration in 1 ml of plasma, the percentage of amount of accumulation in each organ and the percentage of urinary excretion of the said [^3H]PGE1 derivatives (mean±S.D.), respectively at various times after administration.).

CCCCCC(O)/C=C/C1C(O)CC(=O)C1CCCCCCC(=O)O (centres unmarked) [Free PGE1, PGE1, reference compound]
GPT level [1]: 660.89 ± 218.28 IU/L

PGE1-HZ-PLGA-HZ-Lac (Reductive/degree of Polymerization: d^3=0, x^3=35, y^3=36, z^3=22, w^3=4)
GPT level [1]: 239.12 ± 77.482 IU/L

[^3H]PGE1-HZ-PLGA-HZ-Gal (Degree of Polymerization: d^3=0, x^3=29, y^3=32, z^3=31, w^3=5) [[^3H]-PGE1-HZ-PLGA-HZ-Gal]
percentage of amount of accumulation in organ ([2]; Kidney, 1 min.): 1.26 ± 0.23% | percentage of amount of accumulation in organ ([2]; Kidney, 5 min.): 1.23 ± 0.06% | percentage of amount of accumulation in organ ([2]; Kidney, 10 min.): 0.79 ± 0.14% | percentage of amount of accumulation in organ ([2]; Kidney, 60 min.): 0.64 ± 0.22% | percentage of amount of accumulation in organ ([2]; Liver, 1 min.): 54.42 ± 0.79% | percentage of amount of accumulation in organ ([2]; Liver, 5 min.): 70.39 ± 3.51% | percentage of amount of accumulation in organ ([2]; Liver, 10 min.): 80.54 ± 9.52% | percentage of amount of accumulation in organ ([2]; Liver, 60 min. (1 hour)): 85.43 ± 3.78% | percentage of amount of accumulation in organ ([2]; Lung, 1 min.): 1.88 ± 0.46% | percentage of amount of accumulation in organ ([2]; Lung, 5 min.): 1.64 ± 0.56% | percentage of amount of accumulation in organ ([2]; Lung, 10 min.): 1.00 ± 0.21% | percentage of amount of accumulation in organ ([2]; Lung, 60 min.): 0.44 ± 0.18% | percentage of concentration in 1 ml of plasma ([2]; 1 min. after administration): 14.33 ± 0.75% | percentage of concentration in 1 ml of plasma ([2]; 5 min. after administration): 1.64 ± 0.51% | percentage of concentration in 1 ml of plasma ([2]; 10 min. after administration): 0.40 ± 0.06% | percentage of concentration in 1 ml of plasma ([2]; 60 min. after administration): 0.26 ± 0.07% | percentage of amount of accumulation in organ ([2]; Spleen, 1 min.): 1.11 ± 0.14% | percentage of amount of accumulation in organ ([2]; Spleen, 5 min.): 1.85 ± 0.10% | percentage of amount of accumulation in organ ([2]; Spleen, 10 min.): 1.24 ± 0.17% | percentage of amount of accumulation in organ ([2]; Spleen, 60 min.): 1.84 ± 0.16% | percentage of urinary excretion ([2]; 1 min.): 0.00 ± 0.00% | percentage of urinary excretion ([2]; 5 min.): 1.17 ± 1.01% | percentage of urinary excretion ([2]; 10 min.): 1.79 ± 0.25% | percentage of urinary excretion ([2]; 60 min.): 1.45 ± 0.83%
